Source: US20250297255A1 (ARSENAL BIOSCIENCES, published 2025)

B1: TMPRSS4 Ab50 scFv (VH-VL) (scFv)
scFv: QVQLVQSGAEVKKPGASVKVSCKASGYTFTGYYMHWVRQAPGQGLEWMGWINPNSGGTHYAQKFQGRVTMTRDTSTSTVYMELSSLRSEDTAVYYCARVRIGWLQSPPLYWGQGTLVTVSSGGGGSGGGGSGGGGSDIQMTQSPSSLSASVGDRVTITCRASQGISNYLAWYQQKPGKAPKLLIYATSRLQSGVPSRFSGSGSGTDFTLTISSLQPEDFATYYCQQSYKTPLTFGGGTKVEIK
notes: on monoclonal phage in the screen
B2: TMPRSS4 Ab54 scFv (VH-VL) (scFv)
scFv: QVQLVQSGAEVKKPGASVKVSCKASGYTFTSYYMQWVRQAPGQGLEWMGWMNPNSGNTGYAQKFQGRVTMTRDTSTSTVYMELSSLRSEDTAVYYCARVRIGWLQSPPLYWGQGTLVTVSSGGGGSGGGGSGGGGSDIQMTQSPSSLSASVGDRVTITCRASQGISNYLAWYQQKPGKAPKLLIYAASSLQSGVPSRFSGSGSGTDFTLTISSLQPEDFATYYCQQSYSIPFTFGPGTKVDIK
notes: as for B1
B3: TMPRSS4 Ab53 scFv (VH-VL) (scFv)
scFv: QVQLVQSGAEVKKPGASVKVSCKASGYTFTRYYMHWVRQAPGQGLEWMGIINPTGGSTSYAQKFQGRVTMTRDTSTSTVYMELSSLRSEDTAVYYCARGRTWIQSSLGYWGQGTLVTVSSGGGGSGGGGSGGGGSDIQMTQSPSSLSASVGDRVTITCRASRSINRWLAWYQQKPGKAPKLLIYGASTLQSGVPSRFSGSGSGTDFTLTISSLQPEDFATYYCQQSYSTPTFGGGTKVEIK
notes: as for B1
B4: TMPRSS4 Ab49 scFv (VH-VL) (scFv)
scFv: QVQLVQSGAEVKKPGASVKVSCKASGYTFTGYYMHWVRQAPGQGLEWMGRINPNSGGTNYAQKFQGRVTMTRDTSTSTVYMELSSLRSEDTAVYYCARERAGYSSGQFDYWGQGTLVTVSSGGGGSGGGGSGGGGSDIQMTQSPSSLSASVGDRVTITCRASQSISNWLAWYQQKPGKAPKLLIYAASTLQNGVPSRFSGSGSGTDFTLTISSLQPEDFATYYCQQSYTFPITFGQGTKVEIK
notes: as for B1
B5: TMPRSS4 Ab5 scFv (VH-VL) (scFv)
scFv: QVQLVQSGAEVKKPGSSVKVSCKASGYTFTSYYMHWVRQAPGQGLEWMGRIIPILGATDYAQKFQGRVTITADESTSTAYMELSSLRSEDTAVYYCARAGYSSIAARPAFWGQGTLVTVSSGGGGSGSGGGGSGGGGSEIVMTQSPATLSVSPGERATLSCRASQSVSSNLAWYQQKPGQAPRLLIYGASTRATGIPARFSGSGSGTEFTLTISSLQSEDFAVYYCQQYYSPFPLTFGGGTKVEIK
notes: as for B1
B6: TMPRSS4 Ab6 scFv (VH-VL) (scFv)
scFv: QVQLVQSGAEVKKPGASVKVSCKASGYTFTSYYMHWVRQAPGQGLEWLGIINPSDYTTSYAQKFQGRVTMTRDTSTSTVYMELSSLRSEDTAVYYCARVASSSWYPGDENWYFDLWGRGTLVTVSSGGGGSGSGGGGSGGGGSDIVMTQSPDSLAVSLGERATINCKSSQSVLYSSNNKNYLAWYQQKPGQPPKLLIYWASTRESGVPDRFSGSGSGTDFTLTISSLQAEDVAIYYCQQYYAIPWTFGQGTKVEIK
notes: as for B1
B7: TMPRSS4 Ab59 scFv (VH-VL) (scFv)
scFv: QVQLVQSGAEVKKPGASVKVSCKASGGTFSSYTLSWVRQAPGQGLEWMGWIHPKSGVTKNAQKFQGRVTMTRDTSTSTVYMELSSLRSEDTAVYYCARGWVYGRMDAWGQGTTVTVSSGGGGSGGGGSGGGGSEIVMTQSPATLSVSPGERATLSCRASQSVSSNYLAWYQQKPGQAPRLLIYGASTRATGIPARFSGSGSGTEFTLTISSLQSEDFAVYYCQQYGTLPYTFGQGTKVEIK
notes: as for B1
B8: TMPRSS4 Ab52 scFv (VH-VL) (scFv)
scFv: QVQLVQSGAEVKKPGASVKVSCKASGYTFTRYYIHWVRQAPGQGLEWMGWMNPNSGNTGFAQKLQGRVTMTRDTSTSTVYMELSSLRSEDTAVYYCARGPFPRGRLDLWGQGTLVTVSSGGGGSGGGGSGGGGSDIQMTQSPSSLSASVGDRVTITCRASQGISRWLGWYQQKPGKAPKLLIYGASNLQTGVPSRFSGSGSGTDFTLTISSLQPEDFATYYCQQSYSSPRTFGQGTKVEIK
notes: as for B1

Molecular target: T1, Human TMPRSS4 (Transmembrane protease, serine 4), wild type full length (human, UniProt Q9NRS4 1-437)
T1 construct: Type II membrane protein over-expressed on HEK293T cells (also endogenous on H1975 and LUDLU-1 cells); also called TMPRSS4 WT; HEK293T-TMPRSS4
T1 sequence (Q9NRS4 whole entry): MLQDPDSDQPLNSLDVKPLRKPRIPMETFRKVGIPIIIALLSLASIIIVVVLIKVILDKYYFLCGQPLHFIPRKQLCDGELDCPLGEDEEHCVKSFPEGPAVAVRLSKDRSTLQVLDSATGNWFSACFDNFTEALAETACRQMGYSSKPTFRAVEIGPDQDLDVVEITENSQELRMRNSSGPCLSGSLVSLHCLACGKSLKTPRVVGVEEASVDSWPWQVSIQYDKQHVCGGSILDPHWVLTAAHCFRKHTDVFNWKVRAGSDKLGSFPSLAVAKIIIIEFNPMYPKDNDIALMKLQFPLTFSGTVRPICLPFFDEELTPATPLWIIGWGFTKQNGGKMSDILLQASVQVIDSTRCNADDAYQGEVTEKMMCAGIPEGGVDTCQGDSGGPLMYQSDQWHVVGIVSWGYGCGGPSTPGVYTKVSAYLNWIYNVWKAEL
Assay: flow cytometry, monoclonal phage on HEK293T-TMPRSS4 cells;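 also: bound phage detected with a PE-labelled mouse anti-M13 monoclonal antibody, read by flow cytometry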

| Binder | binding result |
| --- | --- |
| B1 | binds |
| B2 | binds |
| B3 | binds |
| B4 | binds |
| B5 | binds |
| B6 | binds |
| B7 | binds |
| B8 | binds |
